Results as given in publication PMC12732646, “Peroxisome Proliferator-Activated Receptor α/δ/γ Activation Profile by Endogenous Long-Chain Fatty Acids” (International Journal of Molecular Sciences, 2025).
Ends that are not written are not given here.

T1: Human PPARδ-LBD (amino acids 170–441) (human, UniProt Q03181 170-441)
T1 sequence (looked up): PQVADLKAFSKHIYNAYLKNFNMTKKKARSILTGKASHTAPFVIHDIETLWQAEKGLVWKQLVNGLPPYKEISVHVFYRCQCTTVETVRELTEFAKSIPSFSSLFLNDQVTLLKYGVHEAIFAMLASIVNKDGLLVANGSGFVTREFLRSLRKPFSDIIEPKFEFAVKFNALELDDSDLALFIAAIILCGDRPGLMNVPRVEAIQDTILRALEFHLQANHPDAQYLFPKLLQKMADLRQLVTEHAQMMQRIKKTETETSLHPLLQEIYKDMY

T2: Human PPARα-LBD (amino acids 200–468) (human, UniProt Q07869 200-468)
T2 construct: source: delipidized with ethanol
T2 sequence (looked up): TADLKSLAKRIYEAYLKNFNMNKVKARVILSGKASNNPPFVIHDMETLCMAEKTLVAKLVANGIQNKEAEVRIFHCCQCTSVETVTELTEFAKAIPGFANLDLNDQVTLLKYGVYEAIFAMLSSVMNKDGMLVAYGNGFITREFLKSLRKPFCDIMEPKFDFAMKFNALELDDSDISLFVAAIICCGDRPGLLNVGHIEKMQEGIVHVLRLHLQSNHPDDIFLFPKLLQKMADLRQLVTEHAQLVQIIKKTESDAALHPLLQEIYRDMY

T3: Human PPARγ-LBD (isoform 1; amino acids 203–477) (human, UniProt P37231-2 203-477)
T3 construct: numbers count on: isoform 1
T3 sequence (looked up): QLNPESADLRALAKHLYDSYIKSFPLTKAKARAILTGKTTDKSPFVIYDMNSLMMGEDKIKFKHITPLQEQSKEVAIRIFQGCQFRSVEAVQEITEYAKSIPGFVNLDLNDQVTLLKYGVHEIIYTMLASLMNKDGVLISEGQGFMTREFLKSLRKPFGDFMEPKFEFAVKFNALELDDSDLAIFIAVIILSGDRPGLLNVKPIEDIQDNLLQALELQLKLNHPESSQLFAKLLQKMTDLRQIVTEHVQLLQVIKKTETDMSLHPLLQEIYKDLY


What was measured:
Settings in all cases: both partners purified
[1] = target: T1, Human PPARδ-LBD (amino acids 170–441); experiment: FRET or BRET; same cell-free TR-FRET coactivator recruitment; with approved drug (pemafibrate for PPARα, seladelpar for PPARδ, pioglitazone for PPARγ), concentration series; response as percent of the maximal response with 1 µM GW full agonist
[2] = target: T2, Human PPARα-LBD (amino acids 200–468); experiment: as above
[3] = target: T3, Human PPARγ-LBD (isoform 1; amino acids …); experiment: FRET or BRET; cell-free TR-FRET coactivator recruitment; 6×His-LBD (9.5 µL of 400 nM) with Eu-W1024 anti-6×His antibody, biotin-labeled peptide (5 µL of 1 µM) with ULight-streptavidin; Buffer A (20 mM HEPES-NaOH pH 7.4, 150 mM NaCl, 1 mM EDTA, 0.005% Tween 20, 0.2% FA-free BSA); room temperature, 2 h; with synthetic full agonist (GW7647 for PPARα, GW501516 for PPARδ, GW1929 for PPARγ), concentration series; 665/620 …
[4] = target: T3, Human PPARγ-LBD (isoform 1; amino acids …); experiment: FRET or BRET; same cell-free TR-FRET coactivator recruitment; with approved drug (pemafibrate for PPARα, seladelpar for PPARδ, pioglitazone for PPARγ), concentration series; response as percent of the maximal response with 1 µM GW full agonist

binding result [1] | binding result [2] | binding result [3] | binding result [4] | Binder
binds | binds | binds |  | PVSSMAGNTKNHPMLMNLLKDNPAQ (also: biotin-labeled, position not given here, Thyroid hormone receptor-associated protein 220, amino acids 631-655, holds an LXXLL motif (LMNLL); also called thyroid hormone receptor-associated protein 220 peptide; source: synthetic peptide (GenScript)) [TRAP220 coactivator peptide, AAs 631–655]
binds | binds |  |  | CPSSHSSLTERHKILHRLLQEGSPS (also: biotin-labeled, position not given here, source: synthetic peptide (GenScript)) [SRC1 coactivator peptide, AAs 676–700]
binds |  |  |  | EAEEPSLLKKLLLAPANTQ (also: biotin-labeled, position not given here, source: synthetic peptide (GenScript)) [PGC1α coactivator peptide, AAs 137–155]
binds | binds |  | binds | SGNLVPDAASKHKQLSELLRGGSGS (also: biotin-labeled, position not given here, source: synthetic peptide (GenScript)) [CBP coactivator peptide, AAs 56–80]
